These results are taken from PMC3378891.

Holding throughout (test): EMSA
For orientation: A gel shift assay detects complexes by their altered migration in electrophoresis.

Series [1] addresses T1, FANCI (chicken, UniProt B0I564 1-1338).
T1 sequence: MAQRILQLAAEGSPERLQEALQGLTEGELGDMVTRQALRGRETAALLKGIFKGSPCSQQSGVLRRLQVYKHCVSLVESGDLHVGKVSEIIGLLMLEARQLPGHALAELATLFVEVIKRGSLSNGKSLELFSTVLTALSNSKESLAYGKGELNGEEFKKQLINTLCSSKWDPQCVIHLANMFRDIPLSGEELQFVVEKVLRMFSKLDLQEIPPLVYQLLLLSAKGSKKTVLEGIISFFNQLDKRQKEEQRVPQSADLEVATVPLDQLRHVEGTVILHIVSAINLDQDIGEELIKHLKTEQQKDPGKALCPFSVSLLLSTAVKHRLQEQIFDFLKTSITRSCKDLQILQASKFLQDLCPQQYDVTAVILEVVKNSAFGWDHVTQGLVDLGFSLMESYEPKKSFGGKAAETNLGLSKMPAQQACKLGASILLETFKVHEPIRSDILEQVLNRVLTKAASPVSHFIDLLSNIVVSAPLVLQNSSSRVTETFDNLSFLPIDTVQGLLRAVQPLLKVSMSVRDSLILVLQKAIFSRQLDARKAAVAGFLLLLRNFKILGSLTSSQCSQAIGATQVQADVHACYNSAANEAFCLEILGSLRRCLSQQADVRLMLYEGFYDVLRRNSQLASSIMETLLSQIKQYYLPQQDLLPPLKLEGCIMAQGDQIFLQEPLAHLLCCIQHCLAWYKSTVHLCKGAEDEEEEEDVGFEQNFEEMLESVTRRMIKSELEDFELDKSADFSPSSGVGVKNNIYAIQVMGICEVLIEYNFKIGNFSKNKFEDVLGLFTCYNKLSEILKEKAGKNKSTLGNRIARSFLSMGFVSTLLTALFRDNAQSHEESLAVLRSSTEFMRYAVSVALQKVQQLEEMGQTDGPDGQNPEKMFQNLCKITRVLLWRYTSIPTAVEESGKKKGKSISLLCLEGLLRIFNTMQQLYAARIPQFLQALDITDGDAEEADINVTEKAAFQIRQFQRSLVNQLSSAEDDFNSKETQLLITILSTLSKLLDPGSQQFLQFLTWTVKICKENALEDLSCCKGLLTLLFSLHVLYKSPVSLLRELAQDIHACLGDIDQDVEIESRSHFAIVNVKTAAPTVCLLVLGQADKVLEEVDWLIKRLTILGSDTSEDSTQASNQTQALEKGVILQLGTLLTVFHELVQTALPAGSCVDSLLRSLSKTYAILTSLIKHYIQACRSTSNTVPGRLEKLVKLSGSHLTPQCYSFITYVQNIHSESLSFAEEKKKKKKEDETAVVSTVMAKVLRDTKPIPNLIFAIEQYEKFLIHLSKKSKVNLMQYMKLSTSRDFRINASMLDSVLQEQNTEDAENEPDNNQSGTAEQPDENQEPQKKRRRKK

Series [2] addresses FANCI;FANCD2 (chicken;chicken, UniProt B0I564;Q68Y81 1-1338;1-1439, |).
Series [3] addresses UBE2T (human, UniProt Q9NPD8 1-197).
Series [4] has as its target T2, GST-FANCL (chicken, UniProt Q3MUH5 1-373).
T2 sequence: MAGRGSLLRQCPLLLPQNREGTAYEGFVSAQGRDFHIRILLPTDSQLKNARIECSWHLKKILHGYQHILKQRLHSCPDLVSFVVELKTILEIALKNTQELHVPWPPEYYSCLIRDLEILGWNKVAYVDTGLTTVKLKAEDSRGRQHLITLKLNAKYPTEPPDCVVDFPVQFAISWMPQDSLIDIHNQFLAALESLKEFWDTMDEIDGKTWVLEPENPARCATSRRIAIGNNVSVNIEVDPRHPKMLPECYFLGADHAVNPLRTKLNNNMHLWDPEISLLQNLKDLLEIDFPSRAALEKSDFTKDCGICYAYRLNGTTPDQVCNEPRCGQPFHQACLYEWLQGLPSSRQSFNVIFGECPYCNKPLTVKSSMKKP

Sequence of FANCI;FANCD2 (Q68Y81 whole entry, one chain of several): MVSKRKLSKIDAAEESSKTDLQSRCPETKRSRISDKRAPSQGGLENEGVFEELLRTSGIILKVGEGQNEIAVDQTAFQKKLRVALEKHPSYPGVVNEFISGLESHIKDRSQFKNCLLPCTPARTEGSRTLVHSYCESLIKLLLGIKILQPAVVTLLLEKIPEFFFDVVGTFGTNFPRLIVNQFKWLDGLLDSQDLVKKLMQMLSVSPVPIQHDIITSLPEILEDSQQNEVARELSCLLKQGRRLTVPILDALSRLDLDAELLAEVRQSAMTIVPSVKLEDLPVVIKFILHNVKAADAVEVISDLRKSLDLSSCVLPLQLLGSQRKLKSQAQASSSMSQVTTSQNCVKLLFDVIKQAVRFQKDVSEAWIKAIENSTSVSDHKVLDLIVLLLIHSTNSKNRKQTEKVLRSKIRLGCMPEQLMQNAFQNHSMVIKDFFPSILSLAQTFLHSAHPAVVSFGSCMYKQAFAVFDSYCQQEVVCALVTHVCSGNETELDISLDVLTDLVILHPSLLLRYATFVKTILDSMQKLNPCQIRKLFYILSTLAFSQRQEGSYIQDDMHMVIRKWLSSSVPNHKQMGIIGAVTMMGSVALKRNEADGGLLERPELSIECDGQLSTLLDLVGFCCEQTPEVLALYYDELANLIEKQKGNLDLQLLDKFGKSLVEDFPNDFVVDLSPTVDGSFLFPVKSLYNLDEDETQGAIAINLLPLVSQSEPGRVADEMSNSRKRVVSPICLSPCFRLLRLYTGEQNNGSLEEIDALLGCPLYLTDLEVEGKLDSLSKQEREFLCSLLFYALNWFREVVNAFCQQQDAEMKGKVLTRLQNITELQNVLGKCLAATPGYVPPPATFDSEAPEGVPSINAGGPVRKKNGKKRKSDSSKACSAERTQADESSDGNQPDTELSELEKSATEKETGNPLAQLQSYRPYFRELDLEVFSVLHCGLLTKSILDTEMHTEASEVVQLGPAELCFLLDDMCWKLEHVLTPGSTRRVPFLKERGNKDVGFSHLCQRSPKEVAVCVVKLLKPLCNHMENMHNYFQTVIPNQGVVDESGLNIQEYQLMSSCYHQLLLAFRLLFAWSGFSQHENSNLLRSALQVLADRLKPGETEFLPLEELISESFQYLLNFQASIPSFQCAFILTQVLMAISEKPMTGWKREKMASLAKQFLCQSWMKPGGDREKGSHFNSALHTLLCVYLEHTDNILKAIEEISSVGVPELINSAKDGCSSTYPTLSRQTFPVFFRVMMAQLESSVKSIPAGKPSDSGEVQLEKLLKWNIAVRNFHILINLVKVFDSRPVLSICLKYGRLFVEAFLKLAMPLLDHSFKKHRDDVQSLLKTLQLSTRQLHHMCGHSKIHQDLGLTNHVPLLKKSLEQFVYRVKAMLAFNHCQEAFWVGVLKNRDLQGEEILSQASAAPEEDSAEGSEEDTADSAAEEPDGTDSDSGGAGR
Sequence of UBE2T (Q9NPD8 whole entry): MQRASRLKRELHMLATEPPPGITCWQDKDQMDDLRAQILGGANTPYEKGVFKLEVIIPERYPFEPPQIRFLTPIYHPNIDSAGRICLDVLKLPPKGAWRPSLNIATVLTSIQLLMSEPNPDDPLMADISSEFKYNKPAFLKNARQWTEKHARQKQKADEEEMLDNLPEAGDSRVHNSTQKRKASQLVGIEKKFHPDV

B1: synthetic Holliday junction (HJ) (structured_DNA)
DNA 1: ATCGATGTCTCTAGACAGCTGCTCAGGATTGATCTGTAATGGCCTGGGA
DNA 2: GTCCCAGGCCATTACAGATCAATCCTGAGCATGTTTACCAAGCGCATTG
DNA 3: TGATCACTTGCTAGCGTCGCAATCCTGAGCAGCTGTCTAGAGACATCGA
DNA 4: CCAATGCGCTTGGTAAACATGCTCAGGATTGCGACGCTAGCAAGTGATC
Consider B1, for which the binding result in series [1] is “binds”.

B2: 5' flapped DNA (structured_DNA)
DNA 1: ATCGATGTCTCTAGACAGCTGCTCAGGATTGATCTGTAATGGCCTGGGA
DNA 2: GTCCCAGGCCATTACAGATCAATCCTGAGCATGTTTACCAAGCGCATTG
DNA 3: CAATGCGCTTGGTAAACA
On to B2, for which the values for the binding result in series [2], in series [3] and in series [4] were “binds”, “no binding” and “no binding”, respectively.
